In publication PMC10029155 (2023):
Where no end group is shown, it is not given here.

Biological target: cathepsin B (Homo sapiens, UniProt P07858)
Assay: square wave voltammetry

Binder | Kd
WDMWPSMDWKAE (also: displayed on M13 phage pIII) [CTSB 4-1 phage-displayed peptide] | 73.7 nM
SSTTNSNSTSNTK-biotin [CTSB BP3, listing 1 of 2 here] | 11.6 nM
SSTTNSNSTSNTK-biotin [CTSB BP3, listing 2 of 2 here] | 50.8 nM
